# System: thrombin-induced focal cerebral ischemic model
# Assay: Thrombin-induced focal cerebral ischemic model: survival and neurological symptom score
# Assay type: in vivo, male Wistar rats
# Description: Twenty male Wistar rats (8-weeks age) were used as one group. The rats were anesthetized with halothane, followed by incision and then subjected to carotid artery shunting. A polyethylene catheter containing thrombin (10 international units) was catheterized into the carotid artery, and […] of blood was sucked and reserved in the catheter for 10 minutes. Then, thrombus formed in the catheter was infused into the carotid artery together with thrombin (J. Cereb. Blood Flow Metab., 17, 123 (1997)).
# The neurological symptoms of said rats were scored according to the method as described in Brain Res., 452, 323 (1988). The evaluation of score was carried out at 6 hours, 24 hours, 48 hours and 72 hours after infusion of thrombin, and the scores were accumulated. The survival period was determined by monitoring surviving or dead rats at intervals of one hour for the first 72 hours after the infusion of thrombin.
# From forty minutes after thrombin infusion, t-PA (Activacin 100,000 international units, product of Kyowa Hakko Kogyo Co., Ltd.) was continuously administered in an amount of 33 μL/min to the anesthetized rats for 15 minutes. (R)-2-propyloctanoic acid (hereinafter referred to as compound A) in an amount of 10 mg/mL/kg was administered through tail vein of the rats three times at 6 hours, 24 hours and 48 hours after the infusion of thrombin.
# [1] = accumulated score, rats surviving 72 h, average ± standard error
molecule,measurement,setting,value
"t-PA: tissue plasminogen activator, thrombolytic agent (Activacin, product of Kyowa Hakko Kogyo Co., Ltd.) (protein, UniProt P00750 36-562, looked up) Tissue-type plasminogen …: SYQVICRDEKTQMIYQQHQSWLRPVLRSNRVEYCWCNSGRAQCHSVPVKSCSEPRCFNGGTCQQALYFSDFVCQCPEGFAGKCCEIDTRATCYEDQGISYRGTWSTAESGAECTNWNSSALAQKPYSGRRPDAIRLGLGNHNYCRNPDRDSKPWCYVFKAGKYSSEFCSTPACSEGNSDCYFGNGSAYRGTHSLTESGASCLPWNSMILIGKVYTAQNPSAQALGLGKHNYCRNPDGDAKPWCHVLKNRRLTWEYCDVPSCSTCGLRQYSQPQFRIKGGLFADIASHPWQAAIFAKHRRSPGERFLCGGILISSCWILSAAHCFQERFPPHHLTVILGRTYRVVPGEEEQKFEVEKYIVHKEFDDDTYDNDIALLQLKSDSSRCAQESSVVRTVCLPPADLQLPDWTECELSGYGKHEALSPFYSERLKEAHVRLYPSSRCTSQHLLNRTVTDNMLCAGDTRSGGPQANLHDACQGDSGGPLVCLNDGRMTLVGIISWGLGCGQKDVPGVYTKVTNYLDWIRDNMRP",Survival rate after 72 hours,"72 hours after thrombin infusion, 20 rats per group, * p<0.05 vs control (Log-rank test)",35.0%
same,No. of surviving rats,"72 hours after thrombin infusion, 20 rats per group, t-PA infused from 40 min for 15 min, compound A 10 mg/mL/kg i.v. at 6, 24, 48 h",7
same,"Neurological symptom score, 0 to 6 hours",[1],3.4 ± 0.2
same,"Neurological symptom score, 0 to 24 hours",[1],3.4 ± 0.2
same,"Neurological symptom score, 0 to 48 hours",[1],3.1 ± 0.3
same,"Neurological symptom score, 0 to 72 hours",[1],3.0 ± 0.3

# From patent US7687489B2, “Agent for treatment of cerebral ischemic diseases” (Ono Pharmaceutical Co., Ltd., priority 2001, dated 2010)
